Laboratory results as given in PMC6943137, “A novel 5′-hydroxyl dinucleotide hydrolase activity for the DXO/Rai1 family of enzymes”.

Target: T1, DXO (mouse, UniProt O70348 1-397)
T1 sequence: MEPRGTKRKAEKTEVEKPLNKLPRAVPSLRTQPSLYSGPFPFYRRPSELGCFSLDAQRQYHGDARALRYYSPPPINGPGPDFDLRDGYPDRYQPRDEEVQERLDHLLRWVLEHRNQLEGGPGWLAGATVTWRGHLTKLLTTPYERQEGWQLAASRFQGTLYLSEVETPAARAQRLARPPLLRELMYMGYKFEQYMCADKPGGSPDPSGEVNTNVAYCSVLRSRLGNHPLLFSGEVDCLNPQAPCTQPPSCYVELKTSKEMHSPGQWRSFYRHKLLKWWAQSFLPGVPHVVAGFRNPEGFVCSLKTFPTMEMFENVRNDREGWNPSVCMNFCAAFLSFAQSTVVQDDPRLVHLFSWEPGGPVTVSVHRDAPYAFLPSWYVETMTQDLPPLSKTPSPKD
Experiment: X-ray crystallography, 2.0 A; Ca2+ (one ion); RNA occupancy ~80%, no hydrolysis in crystal; Crystal structure; crystallization buffer not in the material. Nuclease assays (turnover, not listed): 10 mM Tris pH 7.5, 50 mM KOAc, 2 mM Mg(OAc)2, 2 mM MnCl2, 1 mM DTT, 0.1 mM spermine
Settings: protein: recombinant; tags: His-tag (pET28a); single strand

UUUUUU (XNA, phosphorothioate backbone; 5'-hydroxyl (5'-PO4 removed by CIP)) [5'-OH U(S)6 RNA]: binds.
